Source: patent publication JP2012100585A (dated 2012)

Legend:
[1] = molecular target: T1, BSA (UniProt P02769 25-607); test: ELISA, BSA on the plate, anti-V5 detection
T1 construct: Negative control antigen; also called BSA(陰性対照、シグマ社)

[2] = molecular target: T1, BSA; test: ELISA, BSA on the plate
[3] = molecular target: T2, 組換えヒトLOX−1タンパク質(61−273aa) (human, UniProt P78380 61-273); test: ELISA, LOX-1 (61-273) on the plate, HRP anti-mouse IgG detection
[4] = molecular target: T2, 組換えヒトLOX−1タンパク質(61−273aa); test: ELISA on LOX-1 (61-273), anti-V5 detection; 4-parameter logistic fit

T1 sequence (P02769 25-607 limits assumed): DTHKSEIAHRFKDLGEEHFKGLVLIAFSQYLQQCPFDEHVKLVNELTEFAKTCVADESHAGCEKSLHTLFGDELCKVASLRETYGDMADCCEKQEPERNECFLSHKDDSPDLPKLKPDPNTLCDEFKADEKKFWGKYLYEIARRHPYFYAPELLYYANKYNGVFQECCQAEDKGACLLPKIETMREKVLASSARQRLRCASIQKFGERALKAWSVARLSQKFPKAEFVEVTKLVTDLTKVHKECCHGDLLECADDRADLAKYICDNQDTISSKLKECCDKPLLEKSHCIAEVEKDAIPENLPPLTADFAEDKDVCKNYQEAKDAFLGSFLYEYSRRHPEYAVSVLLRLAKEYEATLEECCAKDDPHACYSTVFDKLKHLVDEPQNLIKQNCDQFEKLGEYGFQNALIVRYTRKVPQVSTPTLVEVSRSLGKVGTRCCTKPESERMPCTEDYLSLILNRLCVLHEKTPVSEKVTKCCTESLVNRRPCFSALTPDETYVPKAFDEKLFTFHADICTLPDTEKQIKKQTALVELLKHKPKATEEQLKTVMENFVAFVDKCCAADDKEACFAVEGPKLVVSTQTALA

B1: Fv型抗LOX−1抗体−ApoB断片融合タンパク質 Fv−B3 (other)
chain: EVKLLESGGGLVQPGGSLKLSCAVSGFDFSRYWMSWVRQAPGKGLEWIGEINPDSSTINFTPSLKDKFIVSRDNAKNTLYLQMSKVRSEDTALYYCARNDVLLGAMDYWGQGTSVTVSSGGGGSGGGGSGGGGSDVLMTQTPLSLPVSLGDQASISCRSSQTIVHSNGKTYLEWYLQKPGQSPKLLIYKVSNRFSGVPDRFSGSGSGTDFTLKISRVEAEDLGVYYCFQGSHVPLTFGAGTKLELKTSGAYSNASSTDSASYYPLTGDTRLELELRPTGEIEQYSVSATYELQREDRALVDTLKFVTQAEGAKQTEATMTFKYNRQSMTLSSE
notes: Fusion of scFv (C-terminus) to ApoB fragment (N-terminus) through a linker; FreeStyle 293, His-tag purified; not shown: C-terminal V5 and 6xHis tag from the pEF6/V5/His vector
binding result [1]: no binding (tested: 1.6ng/mL〜100μg/mL)

B2: Fv型抗LOX−1抗体 (scFv)
scFv: EVKLLESGGGLVQPGGSLKLSCAVSGFDFSRYWMSWVRQAPGKGLEWIGEINPDSSTINFTPSLKDKFIVSRDNAKNTLYLQMSKVRSEDTALYYCARNDVLLGAMDYWGQGTSVTVSSGGGGSGGGGSGGGGSDVLMTQTPLSLPVSLGDQASISCRSSQTIVHSNGKTYLEWYLQKPGQSPKLLIYKVSNRFSGVPDRFSGSGSGTDFTLKISRVEAEDLGVYYCFQGSHVPLTFGAGTKLELK
notes: VH gene was amplified with the #10-1 heavy chain secretion signal; Expressed in FreeStyle 293, purified by His tag; also called Fv型抗体; Fv; not shown: C-terminal V5 and 6xHis tag from the pEF6/V5/His vector
binding result [1]: no binding (tested: 抗体濃度2ng/mL〜100μg/mL)

B3: マウス抗LOX−1モノクローナル抗体#10−1 (antibody, V domains shown)
VH: EVKLLESGGGLVQPGGSLKLSCAVSGFDFSRYWMSWVRQAPGKGLEWIGEINPDSSTINFTPSLKDKFIVSRDNAKNTLYLQMSKVRSEDTALYYCARNDVLLGAMDYWGQGTSVTVSS
VL: DVLMTQTPLSLPVSLGDQASISCRSSQTIVHSNGKTYLEWYLQKPGQSPKLLIYKVSNRFSGVPDRFSGSGSGTDFTLKISRVEAEDLGVYYCFQGSHVPLTFGAGTKLELK
notes: also called 抗LOX−1抗体#10−1; マウス抗LOX−1抗体#10−1のIgG型
binding result [2]: no binding (tested: 抗体濃度2ng/mL〜100μg/mL) | binding result [3]: binds

B4: Fv型抗LOX−1抗体−ApoB断片融合タンパク質 Fv−B1 (other)
chain: EVKLLESGGGLVQPGGSLKLSCAVSGFDFSRYWMSWVRQAPGKGLEWIGEINPDSSTINFTPSLKDKFIVSRDNAKNTLYLQMSKVRSEDTALYYCARNDVLLGAMDYWGQGTSVTVSSGGGGSGGGGSGGGGSDVLMTQTPLSLPVSLGDQASISCRSSQTIVHSNGKTYLEWYLQKPGQSPKLLIYKVSNRFSGVPDRFSGSGSGTDFTLKISRVEAEDLGVYYCFQGSHVPLTFGAGTKLELKEEEMLENVSLVCPKDATRFKHLRKYTYNYEAESSSGVPGTADSRSATRINCKVELEVPQLCSFILKTSQCTLKEVYGFNPEGKALLKKTKNSEEFAAAMSRYELKLAIPEGKQVFLYPEKDEPTYILNIKRGIISALLVPPETEEAKQVLFLDTVYGNCSTHFTVKTRKGNVATEISTERDLGQCDRFKP
notes: as for B1
binding result [1]: no binding (tested: 1.6ng/mL〜100μg/mL)

B5: Fv型抗LOX−1抗体−ApoB断片融合タンパク質 Fv−B2 (other)
chain: EVKLLESGGGLVQPGGSLKLSCAVSGFDFSRYWMSWVRQAPGKGLEWIGEINPDSSTINFTPSLKDKFIVSRDNAKNTLYLQMSKVRSEDTALYYCARNDVLLGAMDYWGQGTSVTVSSGGGGSGGGGSGGGGSDVLMTQTPLSLPVSLGDQASISCRSSQTIVHSNGKTYLEWYLQKPGQSPKLLIYKVSNRFSGVPDRFSGSGSGTDFTLKISRVEAEDLGVYYCFQGSHVPLTFGAGTKLELKREIFNMARDQRSRATLYALSHAVNNYHKTNPTGTQELLDIANYLMEQIQDDCTGDEDYTYLILRVIGNMGQTMEQLTPELKSSILKCVQSTKPSLMIQKAAIQALRKMEPKDKDQEVLLQTFLDDASPGDKRLAAYLMLMRSPSQADINKIVQILPWEQNEQVKNFVASH
notes: as for B1
binding result [1]: no binding (tested: 1.6ng/mL〜100μg/mL) | fold higher inflection-point concentration against Fv型抗体 [4]: ~27 倍

B6: Fv型抗LOX−1抗体−ApoB断片融合タンパク質 Fv−B4 (other)
chain: EVKLLESGGGLVQPGGSLKLSCAVSGFDFSRYWMSWVRQAPGKGLEWIGEINPDSSTINFTPSLKDKFIVSRDNAKNTLYLQMSKVRSEDTALYYCARNDVLLGAMDYWGQGTSVTVSSGGGGSGGGGSGGGGSDVLMTQTPLSLPVSLGDQASISCRSSQTIVHSNGKTYLEWYLQKPGQSPKLLIYKVSNRFSGVPDRFSGSGSGTDFTLKISRVEAEDLGVYYCFQGSHVPLTFGAGTKLELKGPQMSASVHLDSKKKQHLFVKEVKIDGQFRVSSFYAKGTYGLSCQRDPNTGRLNGESNLRFNSSYLQGTNQITGRYEDGTLSLTSTSDLQS
notes: as for B1
binding result [1]: no binding (tested: 1.6ng/mL〜100μg/mL) | fold higher inflection-point concentration against Fv型抗体 [4]: ~7 倍
